From patent publication US11053313B2, “Anti-CLDN-5 antibody, and drug containing said antibody” (OSAKA UNIVERSITY, priority 2017, dated 2021)
Where a chain is given by its changes, count along the chain named. Entries after “also recorded” stand apart in the source; their conditions may differ.

T1: 1-1-5 (Homo sapiens, UniProt O00501, A34S/A72N/D37G/E76T/F35Y/G26A/H38D/H61Q/K48E/L36A/M29Q/M62I/Q31R/T33Y/T45A/T46M/T75S/V32I/V56S/V70L/W47Y/Y67F)
T1 construct: expressed in transfected cells; host or cells: retrovirus-infected cells (pCX4pur)
T1 sequence (O00501 1-218 G26A/M29Q/Q31R/V32I/T33Y/A34S/F35Y/L36A/D37G/H38D/T45A/T46M/W47Y/K48E/V56S/H61Q/M62I/Y67F/V70L/A72N/T75S/E76T): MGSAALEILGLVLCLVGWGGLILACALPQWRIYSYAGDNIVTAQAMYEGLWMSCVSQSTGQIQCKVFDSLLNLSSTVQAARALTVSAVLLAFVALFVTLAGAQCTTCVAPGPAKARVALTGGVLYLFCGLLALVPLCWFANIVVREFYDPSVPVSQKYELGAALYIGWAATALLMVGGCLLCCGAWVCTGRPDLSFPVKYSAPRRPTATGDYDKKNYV

T2: 5-5-1 (Homo sapiens, UniProt O00501, A162Q/K157R/L160F/Q156A/S151M/S155N/V152T)
T2 construct: expressed in transfected cells; host or cells: retrovirus-infected cells (pCX4pur)
T2 sequence (O00501 1-218 S151M/V152T/S155N/Q156A/K157R/L160F/A162Q): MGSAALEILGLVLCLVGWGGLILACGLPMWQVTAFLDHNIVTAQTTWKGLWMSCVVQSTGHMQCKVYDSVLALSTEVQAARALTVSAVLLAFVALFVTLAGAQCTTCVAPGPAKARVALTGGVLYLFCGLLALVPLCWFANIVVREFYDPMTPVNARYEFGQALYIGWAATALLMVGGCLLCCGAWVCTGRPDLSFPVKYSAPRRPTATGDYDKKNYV

T3: hCLDN-5 (Homo sapiens, UniProt O00501)
T3 construct: expressed in transfected cells; host or cells: HT-1080 human fibrosarcoma cells infected with a pCX4pur-derived retrovirus (HT-1080/hCLDN-5)
T3 sequence (O00501 1-218): T2 sequence (O00501 1-218 S151M/V152T/S155N/Q156A/K157R/L160F/A162Q) with M151S, T152V, N155S, A156Q, R157K, F160L, Q162A

T4: 1-5-5 (Homo sapiens, UniProt O00501, A34S/D37G/F35Y/G26A/H38D/K48E/L36A/M29Q/Q31R/T33Y/T45A/T46M/V32I/W47Y)
T4 construct: expressed in transfected cells; host or cells: retrovirus-infected cells (pCX4pur)
T4 sequence (O00501 1-218 G26A/M29Q/Q31R/V32I/T33Y/A34S/F35Y/L36A/D37G/H38D/T45A/T46M/W47Y/K48E): T1 sequence (O00501 1-218 G26A/M29Q/Q31R/V32I/T33Y/A34S/F35Y/L36A/D37G/H38D/T45A/T46M/W47Y/K48E/V56S/H61Q/M62I/Y67F/V70L/A72N/T75S/E76T) with S56V, Q61H, I62M, F67Y, L70V, N72A, S75T, T76E

T5: mCLDN-5 (Mus musculus, UniProt O54942)
T5 construct: expressed in transfected cells; host or cells: retrovirus-infected cells
T5 sequence (O54942 1-218): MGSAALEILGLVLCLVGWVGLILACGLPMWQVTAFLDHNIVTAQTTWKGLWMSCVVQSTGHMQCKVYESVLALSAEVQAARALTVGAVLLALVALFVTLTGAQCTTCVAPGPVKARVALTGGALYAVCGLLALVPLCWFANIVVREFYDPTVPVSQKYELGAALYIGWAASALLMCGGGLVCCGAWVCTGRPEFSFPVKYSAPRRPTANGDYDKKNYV

B1: R14: rat anti-CLDN-5 monoclonal antibody, IgG2a/K; VH SEQ ID NO: 21, VL SEQ ID NO: 22; example of antibody K (antibody, V domains shown)
VH: QVTLKESGPGILQPSHTLSLTCSFSGFSLSTYGMGVSWIRQPSGKGLEWLASIWWNGRTYTNPSLMSRLTVSKDTSTNQAFLRVTSVETADTATYYCAHTPYDYSNLGWFTYWGQGTLVTVSS
VL: DILMTQTPSSQAVSAGEKVTVSCKSSQSLLYSGDQKSYLAWYQQKPGQSPKLLIYLASTRKSGVPDRFIGSGSGTDFTLTISSVQAEDLADYYCQQHYTYPLTFGSGTKLEI
modifications: R14 VH; R14 VL
B2: M11: mouse anti-CLDN-5 monoclonal antibody, IgG2b/K; VH SEQ ID NO: 3, VL SEQ ID NO: 4; example of antibody B (antibody, V domains shown)
VH: QVQLKQSGPGLVQPSQSLSITCTVSGFSLIRYGVHWVRQSPGKGLEWLGVKWSGGSTDYNGAFKSRLSISKDNSKSQVFFKMNSLQADDTAIYYCARGLDGYYVPDVWGTGTSVTVS
VL: DIVMTQSHKFMSTSVGDRVSITCKASQDVSTNVAWYQQKPGQSPTLLIYWASTRHTGVPDRFTGSGSGTDYTLTISSVQAEDLALYYCQQHYSTPLTFGAGTKLELRR
modifications: M11 VH; M11 VL
B3: M23: mouse anti-CLDN-5 monoclonal antibody, IgG2b/K; VH SEQ ID NO: 5, VL SEQ ID NO: 6; example of antibody C (antibody, V domains shown)
VH: EVQLQQSGPVLVKPGPSVMISCKASGFTFTDYYMHWVKQSHGKSLEWIGLVYPYNGGTDYNQKFKGKATLTVDTSSSTAYMELNSLTSEDSAVYYCARCLYDGLYFYAMDYWGQGTSVTVSS
VL: DIVMSQSPSSLAVSAGEKVTMTCKSSQSLLNSRARKNYLAWYQQKAGQSPKLLMYWASTRESGVPDRFTASGSGTDFTLTISSVQAEDLAVFYCKQSYNLPWTFGGGTKLEIKR
modifications: M23 VH; M23 VL
B4: R3: rat anti-CLDN-5 monoclonal antibody, IgG2a/K; VH SEQ ID NO: 13, VL SEQ ID NO: 14; example of antibody G (antibody, V domains shown)
VH: EVQLVESGGGLVQPGRSLKLSCAASGFTFSDYYMAWVRQAPKKGLEWVASISYEGRNTYYGDSVKGRFTISRDNAKSTLYLQMKSLRSEDTATYYCTRHPRRYFDYWGQGVMVTVSS
VL: DIVMTQSPSSLAVSAGETVTMNCRSSQSLFSSGDQKKFLAWYQQKPGQSPKLLISLASTRESGVPDRFIGSGSGTDFTLTINNMQAEDLAIYYCQQHYDIPYTFGAGTKLEL
modifications: R3 VH; R3 VL
B5: M48: mouse anti-CLDN-5 monoclonal antibody, IgG3/K; VH SEQ ID NO: 9, VL SEQ ID NO: 10; example of antibody E (antibody, V domains shown)
VH: QAYLQQSGAELVRPGASVKMSCKASGYTFTSYNMHWVKKTRRQGLEWIGAISPGNGNTSYNQKFKGKATLTVDKSSSTAYMQLSSLTSEDSAVYFCARDDGYYGALDYWGQGTSVTVSS
VL: DIVLTQSPATLSVTPGESVSLSCRASQGISTSIHWYQQKSNESPRLLIRYASQSISRIPSRFSGSGSGTDFTLTINGVESEDLSVYYCQQSYNLPLTFGSGTKLEI
modifications: M48 VH; M48 VL
B6: R2: rat anti-CLDN-5 monoclonal antibody, IgG2a/K; VH SEQ ID NO: 11, VL SEQ ID NO: 12; example of antibody F (antibody, V domains shown)
VH: QVQLKESGPGLVQPSQTLSLTCTVSGLSLIRNSVSWIRQPPGKGLEWMGVIWSNGGTEYNSTVKSRLSISRDTSKNQVFLKMNSLQTEDSAMFFCARTPDGYYPYFDYWGQGVMVTVSS
VL: B5 VL
modifications: R2 VH; R2 VL

Legend:
hCLDN-5 [1] = experiment: Epitope analysis by hCLDN-5/hCLDN-1 chimeric CLDN (FACS), loop assignment; assay type: binding, human; settings: antibody concentration 5 μg/mL, hCLDN-5/hCLDN-1 chimeras
1-1-5 = target: T1, 1-1-5; experiment: Epitope analysis FACS, chimeric protein 1-1-5; assay type: binding; settings: antibody concentration 5 μg/mL; first extracellular loop substituted with hCLDN-1
5-5-1 = target: T2, 5-5-1; experiment: Epitope analysis FACS, chimeric protein 5-5-1; assay type: binding; settings: antibody concentration 5 μg/mL; second extracellular loop substituted with hCLDN-1
hCLDN-5 [2] = experiment: Epitope analysis by hCLDN-5/mCLDN-5 chimeric CLDN (D68E, T75A, S151T, TM; FACS); assay type: binding, human; settings: antibody concentration 5 μg/mL, mutants D68E
hCLDN-5 [3] = target: T3, hCLDN-5; experiment: Western blotting operability, HT-1080/hCLDN-5 lysate; assay type: binding; settings: SDS-PAGE under reducing condition, antibody concentration 10 μg/mL, FIG. 5
Experimental: FIG. 5 illustrates western blotting images showing the CLDN-5 primary structure recognizability of the anti-CLDN-5 antibodies obtained in Example 3-6). The primary antibodies used are shown at the top of the images, and the used cells are shown under the primary antibodies. The names of proteins represented by bands are shown on the left side of the images.
Cell lysates were prepared from HT-1080/mock and HT-1080/hCLDN-5 obtained in Example 1-2), and the lysates were separated by SDS-PAGE under a reducing condition. By using the antibodies (antibody concentration: 10 μg/mL) obtained in Example 1 as primary antibodies, western blotting was performed according to the conventional method. As primary antibodies, commercial monoclonal antibodies (4C3C2, Invitrogen, 35-2500) recognizing the C-terminal of CLDN-5 were used as positive control, and β actin antibodies (Sigma Aldrich, A1978) were used as loading control. The results are illustrated in FIG. 5.

1-5-5 = target: T4, 1-5-5; experiment: Epitope analysis FACS, chimeric protein 1-5-5; assay type: binding; settings: antibody concentration 5 μg/mL; N-terminal half of first extracellular loop substituted with hCLDN-1
mCLDN-5 = target: T5, mCLDN-5; experiment: Evaluation of CLDN specificity by FACS, mCLDN-5-expressing cells; assay type: binding; settings: hybridoma culture supernatant as primary antibody, FIG. 1B
MDCKII/hCLDN-5 = experiment: TEER of CLDN-5 compulsory expression system, MDCKII/hCLDN-5; assay type: cell-based, human; settings: MDCKII/hCLDN-5, FIG. 7B
[4] = system: blood-brain barrier simulation system; experiment: Material permeability of blood-brain barrier simulation system (monkey BBB kit); assay type: cell-based; settings: 12 hours after addition, FIG. 13
ZO-1 = ZO-1 localization by immunostaining in blood-brain barrier simulation system; assay type: cell-based; settings: monkey BBB kit, 12 hours after addition, FIG. 14
CLDN-5 = CLDN-5 localization by immunostaining in blood-brain barrier simulation system; assay type: cell-based; settings: monkey BBB kit, 12 hours after addition, FIG. 14

| Molecule | extracellular loop of CLDN-5 recognized (hCLDN-5 [1]) | recognition of 1-1-5 (1-1-5) | recognition of 5-5-1 (5-5-1) | portion of hCLDN-5 recognized (hCLDN-5 [2]) | recognition of linear peptide (western blotting operability) (hCLDN-5 [3]) | recognition of 1-5-5 (1-5-5) | binding capacity to mCLDN-5 (mCLDN-5) | reduction in TEER (MDCKII/hCLDN-5) | 4 kDa FITC-dextran permeability of the blood-brain barrier simulation system [4] | localization properties of ZO-1 (ZO-1) | localization properties of CLDN-5 in the intercellular space (CLDN-5) |
| --- | --- | --- | --- | --- | --- | --- | --- | --- | --- | --- | --- |
| B1 | second extracellular loop | capable of recognizing | incapable of recognizing | three-dimensional structure created by the transmembrane domain of hCLDN-5; also recorded: domain around the 151st amino acid from the N-terminal present in the second extracellular loop | weakly recognized |  |  |  |  |  |  |
| B2 | first extracellular loop | incapable of recognizing | capable of recognizing | domain around the 68th amino acid from the N-terminal present in the first extracellular loop |  | incapable of recognizing |  |  |  |  |  |
| B3 | second extracellular loop | capable of recognizing | incapable of recognizing | domain around the 151st amino acid from the N-terminal present in the second extracellular loop |  |  |  |  |  |  |  |
| B4 | second extracellular loop | capable of recognizing | incapable of recognizing | domain around the 151st amino acid from the N-terminal present in the second extracellular loop |  |  |  |  |  |  |  |
| B5 | second extracellular loop | capable of recognizing | incapable of recognizing | domain around the 151st amino acid from the N-terminal present in the second extracellular loop |  |  | extremely low | greatly reducing TEER | exhibited an activity of improving | did not change | reduced |
| B6 | first extracellular loop | incapable of recognizing | capable of recognizing | domain around the 68th amino acid from the N-terminal present in the first extracellular loop |  | capable of recognizing |  |  |  |  |  |
